Reference: doi:10.1101/2021.07.29.454387 (bioRxiv, 2021)

Columns and labels:
Assay in all cases: ITC
[1] = biological target: T1, PDZ domain of human PDLIM4 (residues 1-84) (human, UniProt P50479 1-84)
T1 sequence: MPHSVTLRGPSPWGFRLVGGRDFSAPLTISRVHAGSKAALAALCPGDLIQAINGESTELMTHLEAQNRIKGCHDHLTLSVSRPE

[2] = biological target: PDZ domain of human PDLIM7 (residues 1-84) (human, UniProt Q9NR12 1-84)
[3] = biological target: T2, PDZ domain of human PDLIM3 (residues 1-84) (human, UniProt Q53GG5 1-84)
T2 sequence: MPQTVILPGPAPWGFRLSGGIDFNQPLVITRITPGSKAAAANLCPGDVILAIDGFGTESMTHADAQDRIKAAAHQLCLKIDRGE

[4] = biological target: PDLIM7 PDZ domain (1-84) H63A (human, UniProt Q9NR12 1-84, H63A)
[5] = biological target: T3, PDZ domain of human PDLIM5 (residues 1-84) (human, UniProt Q96HC4 1-84)
T3 sequence: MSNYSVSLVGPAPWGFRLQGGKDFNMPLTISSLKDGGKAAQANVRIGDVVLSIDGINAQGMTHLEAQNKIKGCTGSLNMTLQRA

[6] = biological target: PDLIM7 PDZ domain (1-84) P11E (human, UniProt Q9NR12 1-84, P11E)
[7] = biological target: T4, PDZ domain of human PDLIM1 (residues 1-84) (human, UniProt O00151 1-84)
T4 sequence: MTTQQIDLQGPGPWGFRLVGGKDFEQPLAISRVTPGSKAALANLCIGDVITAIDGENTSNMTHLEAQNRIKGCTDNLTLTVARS

[8] = biological target: T5, PDZ domain of human PDLIM2 (residues 1-84) (human, UniProt Q96JY6 1-84)
T5 sequence: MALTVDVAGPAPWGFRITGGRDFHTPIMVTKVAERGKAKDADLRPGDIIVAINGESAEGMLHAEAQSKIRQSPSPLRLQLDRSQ

[9] = biological target: PDLIM7 PDZ domain (1-84) Q67A (human, UniProt Q9NR12 1-84, Q67A)
[10] = biological target: PDLIM7 PDZ domain (1-84) W14Y (human, UniProt Q9NR12 1-84, W14Y)

Measured: binding result

Sequence of PDZ domain of human PDLIM7 (residues 1-84) (Q9NR12 1-84): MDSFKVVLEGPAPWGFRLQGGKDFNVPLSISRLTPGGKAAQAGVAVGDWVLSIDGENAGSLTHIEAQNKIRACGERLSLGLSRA
Sequence of PDLIM7 PDZ domain (1-84) P11E (Q9NR12 1-84 P11E): as the sequence (Q9NR12 1-84) above, with P11E counted along it
Sequence of PDLIM7 PDZ domain (1-84) W14Y (Q9NR12 1-84 W14Y): as the sequence (Q9NR12 1-84) above, with W14Y counted along it
Sequence of PDLIM7 PDZ domain (1-84) Q67A (Q9NR12 1-84 Q67A): as the sequence (Q9NR12 1-84) above, with Q67A counted along it
Sequence of PDLIM7 PDZ domain (1-84) H63A (Q9NR12 1-84 H63A): as the sequence (Q9NR12 1-84) above, with H63A counted along it

HGNFAFEGIGDEDL [SNX17 C-terminal peptide (457-470) used for ITC]
binds: all assays above

HGNFAFEGIGDRDL [SNX17 C-terminal peptide E468R]
binds: [2]
